Assay results taken from patent US12365875B2, “Methods for generating skeletal muscle progenitor cells” (The Regents of the University of California, priority 2017, dated 2025).

Test system: hPSC-SMPCs
Assay: Passaging and expansion of hPSC-SMPCs with added factors, gene expression
Format: cell-based, human
Method: At day 50, myogenic genes PAX7, MYF5, MYOD, MYOG, and MYH3 were measured by QPCR and expressed as fold-change versus day 35 of directed differentiation. […] Subsequently, IGF-1 was added to N2 media in all experiments (FIGS. 5-8, 10A-10D, 10F, 11, and 12A-12E). […] Subsequently, FGF2 was added to SkBM-2 media in experiments (FIGS. 5-8, 10A-10D, 10F, 11, and 12A-12E).
HiPSC-SMPC subpopulations enrich for PAX7 but activate and increase expression of MYOD after passaging. […] (FIG. 9A).

B1: WNT7A: Wnt family member added to SKBM2 expansion media (protein, UniProt O00755 32-349, looked up)
Protein Wnt-7a: LGASIICNKIPGLAPRQRAICQSRPDAIIVIGEGSQMGLDECQFQFRNGRWNCSALGERTVFGKELKVGSREAAFTYAIIAAGVAHAITAACTQGNLSDCGCDKEKQGQYHRDEGWKWGGCSADIRYGIGFAKVFVDAREIKQNARTLMNLHNNEAGRKILEENMKLECKCHGVSGSCTTKTCWTTLPQFRELGYVLKDKYNEAVHVEPVRASRNKRPTFLKIKKPLSYRKPMDTDLVYIEKSPNYCEEDPVTGSVGTQGRACNKTAPQASGCDLMCCGRGYNTHQYARVWQCNCKFHWCCYVKCNTCSERTEMYTCK
Passaged SMPCs in SKBM2
  stemness factors HEYL and CJUN: stabilize or increase stemness factors
Passaged SMPCs, compared to SKBM2 alone
  PAX7 expression during expansion: rescues PAX7 expression
